In patent US20250215071A1, “Novel Mcl-1 inhibitor and combination of Mcl-1 and a BH3 mimetic, such as a Bcl-2 inhibitor” (NETRIS PHARMA, priority 2022, published 2025):

System: EMT6 cells
Assay: EMT6 syngeneic breast tumor model, tumor growth and survival
Assay type: in vivo, BALB/c mice
Conditions: NP137 20 mg/Kg loading then 10 mg/Kg i.v.; Venetoclax 5 mg/Kg oral gavage; vs isotypic control antibody
Protocol: FIG. 8. Combining netrin-1 interference and BH3 mimetics inhibits tumor growth in preclinical in vivo and ex vivo models. ((A,B,C): Combining netrin-1 interference and Bcl-2 inhibition restrains tumor growth in a syngeneic breast cancer model. EMT6 cells were engrafted in BALB/c mice and, once tumors reached a volume of 50 mm^3, treated with isotypic (Iso-mAb) or NP137 antibodies and the Bcl-2 inhibitor Venetoclax, as single agents or in combination. Tumor volumes were measured at the indicated days after the first treatment (n=9, ** p<0.01, ordinary two-way ANOVA with Tukey's multiple comparisons test) (A,B). Survival rate was assessed at sacrifice of mice with tumors more than 500 mm^3 (C). (D,E,F): Combined treatment is efficient to induce apoptosis in human ex vivo slices. Cleaved active caspase-3-positive cells were assessed by IHC staining in fresh ex vivo breast tumor tissue slices. […]
FIG. 9. […] 24 hours later, apoptosis was quantified by Annexin V/propidium iodide (PI) staining. EC50 values were calculated using nonlinear regression of Dose-response curves with GraphPad Prism software. […] Apoptosis was then evaluated by 5′,6,6′-tetrachloro-1,1′,3,3′-tetraethylbenzimi-dazolylcarbocyanine iodide (JC-1) dye staining, using NucleoCounter NC3000 (n=2, *p<0.05, ordinary two-way ANOVA with Tukey's multiple comparisons test). […]

B1: NP137: humanized anti-netrin-1 monoclonal antibody, VH SEQ ID NO: 22, VL SEQ ID NO: 16, human IgG1 (antibody, V domains shown)
VH: QVQLQQSGPGLVKPSQTLSLTCAISGYTFTSYNMHWVRQATGQGLEWMGAIYPGNGDTSYNQKFKGRLTISKDTSKNQVVLTMTNMDPVDTATYYCARGGTGFAYWGQG
VL: DIQMTQSPSSLSASVGDRVTITCKASQSVSNDVAWYQQKPGQAPRLLIYYASNRYTGIPPRFSGSGYGTDFTLTINNIESEDAAYYFCQQDYSSPWTFGQG
modifications: human IgG1 constant region; humanized variant; MISC_FEATURE - CDR according to IGMT
Question: With B1 as the molecule, how does the tumor growth read?
Answer: no effect on tumor growth
